Reference: patent US20050170502A1, “Methods for maintaining hepatocytes in culture and for differentiating embryonic stem cells along a hepatocyte lineage” (REGENTS OF THE UNIVERSITY OF CALIFORNIA, priority 2003, published 2005)

Test system: mouse ES cells (ES-D3)
Assay: Hepatocyte-specific gene expression in differentiated mouse ES cells, real-time quantitative RT-PCR
Conditions: mouse ES cells, IMDM, collagen type I, day 33, FIG. 2A
Method: Mouse ES cell line ES-D3 and mouse STO fibroblasts were obtained from the American Type Culture Collection, Manassas, Va. ES cells were expanded on STO fibroblast feeder layers in Dulbecco's modified Eagle's medium (DMEM) (unless specified, cell culture supplies were from Invitrogen, Carlsbad, Calif.) containing 15% fetal bovine serum (FBS), 1 mM L-glutamine, 60 μM non-essential amino acid solution, 0.1 mM 2-mercaptoethanol, 10 mM HEPES (Sigma-Aldrich, Saint Louis, Mo.), 1400 U/ml leukemia inhibitory factor (LIF) (Chemicon International, Temecula, Calif.), and penicillin/streptomycin at standard concentrations. To prepare feeder layers, STO fibroblasts were cultured until confluent and treated with 10 μg/ml mitomycin C (Sigma-Aldrich) for 4 hours. […]
Total RNA was extracted with RNeasy Mini Kit (Qiagen, Valencia, Calif.). Real time quantitative RT-PCR was employed for the determination of gene expression as described in detail previously by our group (Wege, H. et al., Gastroenterology 124:432-444 (2003)). […] Relative mouse or human gene expression analysis (ΔΔCT) was performed by real-time quantitative PCR with the ABI Prism 7700 Sequence Detection System and SYBR PCR Green Master Mix or TaqMan PCR Master Mix (Applied Biosystems, Foster City, Calif.). […] Normalized expression of hepatocyte-specific genes was compared to levels detected in primary adult mouse or human hepatocytes.

B1: OnM: oncostatin M (protein, UniProt P13725 26-221, looked up)
Oncostatin-M: AAIGSCSKEYRVLLGQLQKQTDLMQDTSRLLDPYIRIQGLDVPKLREHCRERPGAFPSEETLRGLGRRGFLQTLNATLGCVLHRLADLEQRLPKAQDLERSGLNIEDLEKLQMARPNILGLRNNIYCMAQLLDNSDTAEPTKAGRGASQPPTPTPASDAFQRKLEGCRFLHGYHRFMHSVGRVFSKWGESPNRSRR
For B1, the “albumin gene expression (effect of individual growth and differentiation factors)” value was “only minor positive or even negative effects”.
